# Experimental data reported in paper PMC7472333.
# Biological target: WT capsid protein (RRV CP) (Ross River virus, UniProt P08491 1-270)
# Test: EMSA (native agarose gel shift, co-migration of protein and DNA); 3 uM CP, 3 uM DNA, 150 mM NaCl; CLP assembly
# Conditions: protein: recombinant; tags: 6xHis (N-terminal)
# Sequence of WT capsid protein (RRV CP) (P08491 1-270): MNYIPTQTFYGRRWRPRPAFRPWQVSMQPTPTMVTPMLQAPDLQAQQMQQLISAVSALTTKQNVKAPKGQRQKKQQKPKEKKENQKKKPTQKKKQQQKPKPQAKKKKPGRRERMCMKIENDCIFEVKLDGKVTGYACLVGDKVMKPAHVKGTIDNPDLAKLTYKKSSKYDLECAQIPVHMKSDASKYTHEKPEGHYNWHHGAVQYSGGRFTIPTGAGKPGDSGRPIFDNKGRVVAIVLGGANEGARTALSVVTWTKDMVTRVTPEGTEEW
binder,measurement,value
GTTGACGTCACAGATGAGATATAAAGCATAAGGGACATGTTCAAACGG (ssDNA) [48-mer linear ssDNA oligomer (DNA cargo)],binding result,binds
